Consider eleven molecules from patent publication US20110076723A1, “ANTIBODY-PEPTIDE FUSED SYNERGIBODY” (SAMSUNG ELECTRONICS CO., LTD., priority 2008, published 2011).

B1: Syn-Ang-VEGFR-11: fused protein synergibody SAITAng-2-3 × DTN6VEGFR-2-1, peptide at C-terminal of heavy chain (protein)
heavy (part 1 of 2): DVQLVESGGGLVQPGGSRKLSCAASGFTFSSFGMHWVRQAPEKGLEWVAYISSDSSTIYYADTVKGRFTISRDNPKNTLFLQMTSLRSEDTAMYYCAREGGYDDYYAMDYWGQGTSVTVSS
heavy (part 2 of 2): TGSDDLCYTFPCMHY
light: DIQMTQSPASQSASLGESVTITCLASQTIGTWLAWYQQKPGKSPQLLIYAATSLADGVPSRFSGSGSGTKFSFKISSLQAEDFVSYYCQQLYSIPLTFGGGTKLEIK
modifications: left off: a dimerising Fc or GST
notes: fused protein synergibody SAITAng-2-3 × DTN6VEGFR-2-1, peptide at C-terminal of heavy chain
B2: Syn-Ang-VEGFR-6: fused protein synergibody SAITAng-2-2 × DTN6VEGFR-2-1, peptide at C-terminal of heavy chain (protein)
heavy (part 1 of 2): QVQLQQSGPELVKPGASVKMSCKASGYTFTDYVISWVKQRTGQGLEWIGEIYPGSGSTYYNEKFKGKASLTADKSSNTAYMQLSSLTSADSAVYFCVRSRGDYYAMDYWGQGTSVTVSS
heavy (part 2 of 2): TGSDDLCYTFPCMHY
light: DIQMTQSPSSLSASLGGKVTITCKASQDINNYITWYQHKPGKGPRLLIHYTSTLQPGIPSRFSGSGSGRDYSFSISNLEPEDIATYYCLQYDNLLTFGGGTKLEIK
modifications: left off: a dimerising Fc or GST
notes: fused protein synergibody SAITAng-2-2 × DTN6VEGFR-2-1, peptide at C-terminal of heavy chain
B3: Syn-Ang-VEGFR-10: fused protein synergibody SAITAng-2-2 × DTN11VEGFR-2-5, peptide at C-terminal of heavy chain (protein)
heavy (part 1 of 2): QVQLQQSGPELVKPGASVKMSCKASGYTFTDYVISWVKQRTGQGLEWIGEIYPGSGSTYYNEKFKGKASLTADKSSNTAYMQLSSLTSADSAVYFCVRSRGDYYAMDYWGQGTSVTVSS
heavy (part 2 of 2): PGSQGYCHLNMRYQWICDSE
light: DIQMTQSPSSLSASLGGKVTITCKASQDINNYITWYQHKPGKGPRLLIHYTSTLQPGIPSRFSGSGSGRDYSFSISNLEPEDIATYYCLQYDNLLTFGGGTKLEIK
modifications: left off: a dimerising Fc or GST
notes: fused protein synergibody SAITAng-2-2 × DTN11VEGFR-2-5, peptide at C-terminal of heavy chain
B4: Syn-Ang-VEGFR-9: fused protein synergibody SAITAng-2-2 × DTN10VEGFR-2-4, peptide at C-terminal of heavy chain (protein)
heavy (part 1 of 2): QVQLQQSGPELVKPGASVKMSCKASGYTFTDYVISWVKQRTGQGLEWIGEIYPGSGSTYYNEKFKGKASLTADKSSNTAYMQLSSLTSADSAVYFCVRSRGDYYAMDYWGQGTSVTVSS
heavy (part 2 of 2): TGSGRMCDGSGPPTNCWFT
light: DIQMTQSPSSLSASLGGKVTITCKASQDINNYITWYQHKPGKGPRLLIHYTSTLQPGIPSRFSGSGSGRDYSFSISNLEPEDIATYYCLQYDNLLTFGGGTKLEIK
modifications: left off: a dimerising Fc or GST
notes: fused protein synergibody SAITAng-2-2 × DTN10VEGFR-2-4, peptide at C-terminal of heavy chain
B5: Syn-Ang-VEGFR-7: fused protein synergibody SAITAng-2-2 × DTN8VEGFR-2-2, peptide at C-terminal of heavy chain (protein)
heavy (part 1 of 2): QVQLQQSGPELVKPGASVKMSCKASGYTFTDYVISWVKQRTGQGLEWIGEIYPGSGSTYYNEKFKGKASLTADKSSNTAYMQLSSLTSADSAVYFCVRSRGDYYAMDYWGQGTSVTVSS
heavy (part 2 of 2): EAGKETCGYEWQYCPRP
light: DIQMTQSPSSLSASLGGKVTITCKASQDINNYITWYQHKPGKGPRLLIHYTSTLQPGIPSRFSGSGSGRDYSFSISNLEPEDIATYYCLQYDNLLTFGGGTKLEIK
modifications: left off: a dimerising Fc or GST
notes: fused protein synergibody SAITAng-2-2 × DTN8VEGFR-2-2, peptide at C-terminal of heavy chain
B6: Syn-Ang-VEGFR-8: fused protein synergibody SAITAng-2-2 × DTN9VEGFR-2-3, peptide at C-terminal of heavy chain (protein)
heavy (part 1 of 2): QVQLQQSGPELVKPGASVKMSCKASGYTFTDYVISWVKQRTGQGLEWIGEIYPGSGSTYYNEKFKGKASLTADKSSNTAYMQLSSLTSADSAVYFCVRSRGDYYAMDYWGQGTSVTVSS
heavy (part 2 of 2): EAGAYWCKAWGLSPCLVT
light: DIQMTQSPSSLSASLGGKVTITCKASQDINNYITWYQHKPGKGPRLLIHYTSTLQPGIPSRFSGSGSGRDYSFSISNLEPEDIATYYCLQYDNLLTFGGGTKLEIK
modifications: left off: a dimerising Fc or GST
notes: fused protein synergibody SAITAng-2-2 × DTN9VEGFR-2-3, peptide at C-terminal of heavy chain

Where a SMILES comes first, the peptide text is derived from it. Bridges are numbered along the chain shown (N, C = ends).

The first test concerns HUVEC. As to the kind of experiment: Cell-based functional assay, endothelial cell tube formation (BD BioCoat Angiogenesis System). Set-up: species or system human. To be noted: 5 μM fused protein synergibody, 18 hours; unrelated control group 12,227 ± 1,232. As for the experimental part:
Chimeric antibodies may be screened by functional assays such as cell-based assay for inhibition activity. In this example, BD BioCoat™ Angiogenesis System-Endothelial Cell Tube Formation (BD Biosciences) is used. BD Falcon 96-well Black/Clear plate coated with BD Matrigel Matrix that had been stored at −20° C. is slowly melted at 4° C. for 6 hours, and the mat cover of the plate is removed inside a sterile clean bench. Then it is left at 37° C. , 5% CO2 for 30 minutes so that the Matrigel™ Matrix would form polymers. Then it is made into a suspension by treating HUVEC, cultured on a petridish containing EGM-2 MV (Lonza) medium added with 10% fetal bovine serum to 70 to 80% confluence, with 0.5% Trypsin-EDTA (Gibco). Then it is resuspended in a culture medium containing 10% fetal bovine serum to a cell concentration of 4×10^5 cells/ml. At this time, 5 μM of each anti-Ang-2 chimeric antibodies expressed and purified in Section 5 above are also added and resuspended. Then 50 μl (about 2×10^4 cells) of each of the suspension is added to each well of the plate and incubated at 37° C. , 5% CO2 for 18 hours. Then the medium is removed and each well is washed twice with 100 μl of Hanks' balanced salt solution (HBSS, Invitrogen) ensuring that the tubes of the cells formed on BD Matrigel™ Matrix are not damaged. 50 μl of calcein AM (BD sciences) dissolved in HBSS at the concentration of 8 μg/ml is added to each well. The plate is then left to react at 37° C., 5% CO2 for 30 minutes and the calcein AM (BD sciences) solution is removed and washed twice with HBSS. Lastly, an image of the length of the entire tube of HUVEC formed on BD Matrigel™ Matrix is obtained on a fluorescent microscope and analyzed by using MetaMorph® software (Universal Imaging Corporation™, http://www.moleculardevices.com).
The peptides synthesized in Section 6A above are screened by cell-based functional assay for inhibition activity. The method described in Example 1, Section 7 is used, except that 5 μM synthesized peptides are added instead of anti-Ang-2 antibodies.
The fused protein synergibodies prepared in Section 1 above are screened using cell-based functional assay for inhibition activity. The method described in Example 1, Section 7 is used, except that, in this example, 5 μM of fused protein synergibodies are added instead of anti-Ang-2 antibodies.
Turning to B1, the “Length of entire tube of HUVEC (2 × 10^4 cells) (pixels)” value (from here on “Length of entire tube of HUVEC”) is given as 3,925 ± 675 pixels.

For the molecule B2, the “Length of entire tube of HUVEC” value is 6,157 ± 1,141 pixels.

Take B3: the “Length of entire tube of HUVEC” value is recorded as 5,898 ± 1,037 pixels.

On to B4, for which the “Length of entire tube of HUVEC” value is 6,055 ± 779 pixels.

Take B5: the “Length of entire tube of HUVEC” value was 5,935 ± 995 pixels.

Take B6: the “Length of entire tube of HUVEC” value is 6,244 ± 935 pixels.

The same test, now with this note: 5 μM synthesized peptide, 18 hours; unrelated control group 12,227 ± 1,232.
With `C[C@H](NC(=O)[C@@H](N)CCC(=O)O)C(=O)NCC(=O)N[C@@H](CCCCN)C(=O)N[C@@H](CCC(=O)O)C(=O)N[C@H](C(=O)N[C@H]1CSSC[C@@H](C(=O)N2CCC[C@H]2C(=O)N[C@@H](CCCNC(=N)N)C(=O)N2CCC[C@H]2C(=O)O)NC(=O)[C@H](Cc2ccc(O)cc2)NC(=O)[C@H](CCC(N)=O)NC(=O)[C@H](Cc2c[nH]c3ccccc23)NC(=O)[C@H](CCC(=O)O)NC(=O)[C@H](Cc2ccc(O)cc2)NC(=O)CNC1=O)[C@@H](C)O` [DTN8VEGFR-2-2] (H-EAGKETCGYEWQYCPRP-OH; disulfide 7-14; N-terminus and C-terminus assumed), the “Length of the entire tube of HUVEC (2 × 10^4 cells) (pixels)” value (from here on “Length of the entire tube of HUVEC”) is reported as 10,891 ± 1,014 pixels.

Turning to `CSCC[C@H](NC(=O)[C@H](CCCNC(=N)N)NC(=O)CNC(=O)[C@H](CO)NC(=O)CNC(=O)[C@@H](N)[C@@H](C)O)C(=O)N[C@H]1CSSC[C@@H](C(=O)N[C@@H](Cc2c[nH]c3ccccc23)C(=O)N[C@@H](Cc2ccccc2)C(=O)N[C@H](C(=O)O)[C@@H](C)O)NC(=O)[C@H](CC(N)=O)NC(=O)[C@H]([C@@H](C)O)NC(=O)[C@@H]2CCCN2C(=O)[C@@H]2CCCN2C(=O)CNC(=O)[C@H](CO)NC(=O)CNC(=O)[C@H](CC(=O)O)NC1=O` [DTN10VEGFR-2-4] (H-TGSGRMCDGSGPPTNCWFT-OH; disulfide 7-16; N-terminus and C-terminus assumed), the “Length of the entire tube of HUVEC” value is on record as 10,773 ± 992 pixels.

Turning to `CC(C)C[C@@H]1NC(=O)CNC(=O)[C@H](Cc2c[nH]c3ccccc23)NC(=O)[C@H](C)NC(=O)[C@H](CCCCN)NC(=O)[C@@H](NC(=O)[C@H](Cc2c[nH]c3ccccc23)NC(=O)[C@H](Cc2ccc(O)cc2)NC(=O)[C@H](C)NC(=O)CNC(=O)[C@H](C)NC(=O)[C@@H](N)CCC(=O)O)CSSC[C@@H](C(=O)N[C@@H](CC(C)C)C(=O)N[C@H](C(=O)N[C@H](C(=O)O)[C@@H](C)O)C(C)C)NC(=O)[C@@H]2CCCN2C(=O)[C@H](CO)NC1=O` [DTN9VEGFR-2-3] (H-EAGAYWCKAWGLSPCLVT-OH; disulfide 7-15; N-terminus and C-terminus assumed), the “Length of the entire tube of HUVEC” value was 12,101 ± 869 pixels.

With `CSCC[C@H](NC(=O)[C@@H]1CSSC[C@H](NC(=O)[C@H](CC(C)C)NC(=O)[C@H](CC(=O)O)NC(=O)[C@H](CC(=O)O)NC(=O)[C@H](CO)NC(=O)CNC(=O)[C@@H](N)[C@@H](C)O)C(=O)N[C@@H](Cc2ccc(O)cc2)C(=O)N[C@@H]([C@@H](C)O)C(=O)N[C@@H](Cc2ccccc2)C(=O)N2CCC[C@H]2C(=O)N1)C(=O)N[C@@H](Cc1c[nH]cn1)C(=O)N[C@@H](Cc1ccc(O)cc1)C(=O)O` [DTN6VEGFR-2-1] (H-TGSDDLCYTFPCMHY-OH; disulfide 7-12; N-terminus and C-terminus assumed), the “Length of the entire tube of HUVEC” value is listed as 11,093 ± 1,308 pixels.

With `CC[C@H](C)[C@@H]1NC(=O)[C@H](Cc2c[nH]c3ccccc23)NC(=O)[C@H](CCC(N)=O)NC(=O)[C@H](Cc2ccc(O)cc2)NC(=O)[C@H](CCCNC(=N)N)NC(=O)[C@H](CCSC)NC(=O)[C@H](CC(N)=O)NC(=O)[C@H](CC(C)C)NC(=O)[C@H](Cc2c[nH]cn2)NC(=O)[C@@H](NC(=O)[C@H](Cc2ccc(O)cc2)NC(=O)CNC(=O)[C@H](CCC(N)=O)NC(=O)[C@H](CO)NC(=O)CNC(=O)[C@@H]2CCCN2)CSSC[C@@H](C(=O)N[C@@H](CC(=O)O)C(=O)N[C@@H](CO)C(=O)N[C@@H](CCC(=O)O)C(=O)O)NC1=O` [DTN11VEGFR-2-5] (H-PGSQGYCHLNMRYQWICDSE-OH; disulfide 7-17; N-terminus and C-terminus assumed), the “Length of the entire tube of HUVEC” value is on record as 11,896 ± 1,159 pixels.
